The target in assay [1] is T1, huIL-17RA-FLAG-polyHis (human, UniProt Q96F46 33-320).
T1 construct: also called IL-17RA-FLAG-pHis; wild-type IL-17RA
Description: binning; IL-17RA held by bead mAb N.

In assay [2] the target is T1, huIL-17RA-FLAG-polyHis. In words: binning; IL-17RA held by bead mAb D.
The target of assay [3] is T1, huIL-17RA-FLAG-polyHis. Description: binning; IL-17RA held by bead mAb R.
The target in assay [4] is T1, huIL-17RA-FLAG-polyHis. In words: binning; IL-17RA held by bead mAb L.
Assay [5] addresses T1, huIL-17RA-FLAG-polyHis. In words: binning; IL-17RA held by bead mAb G.
In assay [6] the target is human IL-17RA (form used in the low resolution BIAcore not stated) (human, UniProt Q96F46 33-320, limits assumed). Description: low resolution BIAcore, subcloned hybridoma.
Assay [7] deals with D152R IL-17RA mutant (human, UniProt Q96F46 33-320). In words: Bio-Plex titration on His-captured D152R mutant.
Assay [8] deals with T1, huIL-17RA-FLAG-polyHis. Description: binning; IL-17RA held by bead mAb P.
For assay [9], the target named is T1, huIL-17RA-FLAG-polyHis. Description: binning; IL-17RA held by bead mAb I.
The target in assay [10] is T1, huIL-17RA-FLAG-polyHis. Description: binning; IL-17RA held by bead mAb C.
In assay [11] the target is T1, huIL-17RA-FLAG-polyHis. Description: binning; IL-17RA held by bead mAb K.
The target of assay [12] is T1, huIL-17RA-FLAG-polyHis. Description: binning; IL-17RA held by bead mAb E.
Assay [13] concerns the target T1, huIL-17RA-FLAG-polyHis. Description: Bio-Plex, His-tagged wild-type huIL-17RA on pentaHis beads, antibody titration, PE anti-human IgG Fc.
Assay [14] deals with T1, huIL-17RA-FLAG-polyHis. In words: binning; IL-17RA held by bead mAb H.
Assay [15] concerns the target T2, chimera C.
T2 construct: human IL-17RA extracellular domain with mouse Domain C; also called Construct C
Description: Bio-Plex titration on His-captured chimera.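 Note: binding of anti-IL-17RA antibodies (4-fold titration across about 5 logs, 1 h) to His-captured IL-17RA chimeras on multiplexed beads, MFI read as percent of maximal wild-type human IL-17RA signal.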

In assay [16] the target is T3, chimera L.
T3 construct: human IL-17RA extracellular domain with mouse Domains B and F; B+F; also called Construct L
Description: Bio-Plex titration on His-captured chimera.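 Note: binding of anti-IL-17RA antibodies (4-fold titration across about 5 logs, 1 h) to His-captured IL-17RA chimeras on multiplexed beads, MFI read as percent of maximal wild-type human IL-17RA signal.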

The target of assay [17] is T4, chimera E.
T4 construct: human IL-17RA extracellular domain with mouse Domain E; also called Construct E
Description: Bio-Plex titration on His-captured chimera.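 Note: binding of anti-IL-17RA antibodies (4-fold titration across about 5 logs, 1 h) to His-captured IL-17RA chimeras on multiplexed beads, MFI read as percent of maximal wild-type human IL-17RA signal.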

Assay [18] has as its target T5, chimera B.
T5 construct: human IL-17RA extracellular domain with mouse Domain B; column head 75-96; also called Construct B
T5 IL-17RA extracellular domain with FLAG-polyHis tag: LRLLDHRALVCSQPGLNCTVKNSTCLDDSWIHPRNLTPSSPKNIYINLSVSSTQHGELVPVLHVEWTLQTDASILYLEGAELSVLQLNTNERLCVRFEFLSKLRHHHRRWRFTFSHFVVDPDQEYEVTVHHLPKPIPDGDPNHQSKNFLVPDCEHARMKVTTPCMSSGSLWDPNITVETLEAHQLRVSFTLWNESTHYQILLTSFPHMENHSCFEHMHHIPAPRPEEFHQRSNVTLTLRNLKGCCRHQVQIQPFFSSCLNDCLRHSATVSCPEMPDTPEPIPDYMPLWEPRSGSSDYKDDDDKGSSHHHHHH
In words: Bio-Plex titration on His-captured chimera.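 Note: binding of anti-IL-17RA antibodies (4-fold titration across about 5 logs, 1 h) to His-captured IL-17RA chimeras on multiplexed beads, MFI read as percent of maximal wild-type human IL-17RA signal.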

For assay [19], the target named is T6, chimera G.
T6 construct: human IL-17RA extracellular domain with mouse Domains A and E; also called Construct G
In words: Bio-Plex titration on His-captured chimera.

Assay [20] addresses T7, chimera I.
T7 construct: human IL-17RA extracellular domain with mouse Domains C and E; also called Construct I
In words: Bio-Plex titration on His-captured chimera.

Assay [21] has as its target T8, chimera H.
T8 construct: human IL-17RA extracellular domain with mouse Domains B and E; also called Construct H
T8 IL-17RA extracellular domain with FLAG-polyHis tag: T5 IL-17RA extracellular domain with FLAG-polyHis tag with E181D, A182T, H183Q, Q184H, S188D
In words: Bio-Plex titration on His-captured chimera.

The target of assay [22] is T9, chimera A.
T9 construct: human IL-17RA extracellular domain with mouse Domain A; column head aa 38-51; also called Construct A
In words: Bio-Plex titration on His-captured chimera.

Assay [23] addresses T1, huIL-17RA-FLAG-polyHis. Description: binning; IL-17RA held by bead mAb Q.
The target of assay [24] is T1, huIL-17RA-FLAG-polyHis. In words: binning; IL-17RA held by bead mAb A.

Changes are numbered by the printed parent chain.

B1: AMH21/AML21 (antibody, IgG2, V domains shown)
VH: EVQLVESGGGSVQPGGSLRLSCAASGFTFSSYSMNWVRQAPGKGLEWVSIISSRSSIIHYADSVKGRFTISRDNAKNSLYLQMNSLRDEDTAVYYCARPKVGGGMDVWGQGTTVTVSS
VL: DIQMTQSPSSLSASVGDRVTITCRASQGISNYLAWYQQKPGKFPELLIYAASTLQSGVPSRFSGSGSGTDFTLTISSLQPEDVATYYCQKYNRAPFTFGPGTKVDIK
notes: human mAb from IgG2 XenoMouse mice; also called AM-21; antibody Q
Usually Kd stands for the constant that tells how readily two partners part at equilibrium. By EC50 is commonly meant the concentration giving half of the maximal effect. Higher therefore signals a need for much substance. On to B1, for which the “normalized MFI” value was 39 in assay [1]; 1380 in [2]; 34 in [3]; -58 in assay [4]; 6280 in assay [5]; 2160 in assay [8]. The “normalized MFI” value in assay [9] was 2.5; in assay [10] it was 4770; in assay [11], -181; in assay [12], 1170; in [14], 10200; in assay [23], 100. Moreover, in assay [24], the “normalized MFI” value is 9530. This molecule came in with a Kd in assay [6] of 16.7 nM. Also, the binding result in [7] is “no binding (tested: log [Ab] about 0.5 (about 3 nM))”. Besides, the EC50 came to 0.018 nM in [13]; 0.03 nM in [15]; 0.025 nM in [16]; 0.026 nM in assay [17]; 0.017 nM in [18]; 0.025 nM in [19]. For the same molecule, the 50% effective concentration (EC50) in assay [20] amounted to 0.032 nM; in assay [21], 0.025 nM; in assay [22], 0.018 nM.

B2: AMH20/AML20 (antibody, IgG2, V domains shown)
VH: B1 VH with S11L, I50F, S53A, I57T, H59Y
VL: B1 VL
notes: human mAb from IgG2 XenoMouse mice; also called AM-20; antibody R
In the case of B2, the “normalized MFI” value in assay [1] amounted to 24; in [2], 783; in assay [3] it was 25; in assay [4], 15; in assay [5] it was 4020; in [8] it was 1410. Besides, the “normalized MFI” value is 58 in assay [9]; 2990 in [10]; -29 in assay [11]; 666 in assay [12]; 8300 in [14]; 60 in [23]. Besides, in [24], the “normalized MFI” value was 6800. In assay [6], this molecule gave a Kd of 11.6 nM. Also, the binding result in assay [7] is “no binding (tested: log [Ab] about 0.5 (about 3 nM))”. The EC50 was determined as 0.022 nM in [13]; 0.04 nM in assay [15]; 0.027 nM in assay [16]; 0.027 nM in assay [17]; 0.02 nM in assay [18]; 0.027 nM in assay [19]. The values for the EC50 in assay [20], in assay [21] and in assay [22] were 0.042 nM, 0.033 nM and 0.023 nM, respectively.

B3: AMH18/AML18 (antibody, IgG2, V domains shown)
VH: QVQLVQSGAEVKKPGASVKVSCKASGYSFTDYYMHWVRQAPGQGLEWMGWMHPNSGGTDLAQRFQGRVTMTRDTSISTAYMELSRLRSDDTAVYYCARGGYCSTLSCSFYWYFDLWGRGTLVTVSS
VL: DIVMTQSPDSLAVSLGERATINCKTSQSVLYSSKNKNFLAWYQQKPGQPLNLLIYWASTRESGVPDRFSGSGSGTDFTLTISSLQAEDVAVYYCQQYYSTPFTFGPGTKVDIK
notes: human mAb from IgG2 XenoMouse mice; also called AM-18; antibody G
The EC50 (read off the curve) is the midpoint of the concentration-response curve. As to B3, the “normalized MFI” value in assay [1] is 3230; in assay [2], 344; in assay [3], 5110; in assay [4], 3590; in assay [5] it was 480; in [8], 4490. Further, the “normalized MFI” value was found to be 6890 in assay [9]; 354 in [10]; 8970 in [11]; 260 in assay [12]; 4000 in [14]; 7850 in assay [23]. The “normalized MFI” value in [24] was -162. This molecule yielded a Kd in assay [6] of 14.9 nM. Besides, in assay [7], the “EC50 (read off the curve)” value was approximately 0.07 nM. Also, the EC50 in [13] was determined as 0.061 nM; in assay [15], 0.052 nM; in assay [17] it was 0.067 nM; in assay [18], 0.063 nM; in assay [19] it was 0.052 nM; in [20] it was 0.059 nM. Besides, the half-maximal effective concentration (EC50) came out at 0.088 nM in [21] and 0.052 nM in assay [22]. Moreover, the binding result in assay [16] is recorded as “no binding”.

The values above are taken from patent US20120251547A1 (Amgen, published 2012).
